Numbering of substitutions follows the chain as printed.
B1: FLL154 (VHH)
VHH: QVQLQESGGGLVQAGGSLRLSCAVSGRTFSGFGTGWFRQAPGKEREFVAAISWSGGRTHYADSVKGRFTISRDNAKNTVYLQMNSLKPEDTAVYYCAGQVARAYDGNWYSRGDYWGQGTQVTVSS
notes: llama anti-FLT3 variable domain; E. coli periplasmic extract
B2: FLL143 (VHH)
VHH: B1 VHH with S54V, G98A, R111G
notes: as for B1
B3: FLL74 (VHH)
VHH: B1 VHH with A23R, V24F, S54A, A61E, G98V, A101S, N107I, R111G
notes: as for B1
B4: FLL94 (VHH)
VHH: B1 VHH with G42E, S54D, V93I, G106T, N107R
notes: as for B1
B5: FLL188 (VHH)
VHH: B1 VHH with R19G, A40P, G42E, S54D, Y80F, G98A, G106S, N107R, R111G
notes: as for B1
B6: FLL99 (VHH)
VHH: B1 VHH with S54D, S63F, G98A, G106S, N107R, R111G
notes: as for B1
B7: FLL168 (VHH)
VHH: QVQLQESGGGSVQAGGSLRLSCAFSGRTFSGFGTGWFRQAPEKEREFVAAISWDGGRTHYADSVKGRFTISRDNAKNTVYLQMDSLKPEDTAIYYCAAQVSRAYDGRWYSAVDYWGRGTQVTVSS
notes: as for B1
B8: FLL112 (VHH)
VHH: B1 VHH with S54A, A61E, S71H, G98A, A101S, N107I, R111G
notes: as for B1
B9: FLL6 (VHH)
VHH: B1 VHH with S54D, K76A, A101S, G106S, N107M, S110G, G112D
notes: as for B1
B10: FLL170 (VHH)
VHH: B1 VHH with R57T, G106S, N107S
notes: as for B1
B11: FLL142 (VHH)
VHH: B1 VHH with S54D, S63F, G98A, G106S, N107K, R111G
notes: as for B1
B12: FLL38 (VHH)
VHH: B1 VHH with I51V, R57T, H59E, Y60I, N84S, E89G, G106S, N107R
notes: as for B1
B13: FLL83 (VHH)
VHH: B1 VHH with R57T, K76E, Q82E, Y95I, A101S, G106S, G112D
notes: as for B1
B14: FLL553 (VHH)
VHH: QVQLQESGGGLVQAGGSLRLSCAVSGRTFSGFGTGWFRQAPGKEREFVAAISWSGGTTHYADSVKGRFTISRDNAKNTVNLVYLQMNSLRPEDTAVYYCAGQVARAYDSNWYSRGDYWGQGTQVTVSS
notes: as for B1
B15: FLL75 (VHH)
VHH: B14 VHH with S88D
notes: as for B1
B16: FLL40 (VHH)
VHH: B14 VHH with N80S, R90K, E92D, N110S, W118L
notes: as for B1
B17: FLL53 (VHH)
VHH: B14 VHH with G16D, I51V, W53Q, V79E, N80T, R90K, N110S, S113A
notes: as for B1
B18: FLL134 (VHH)
VHH: QVQLQESGGGLVQPGGSLRLSCAASGGTFSSYATGWFRQVPGKEREFIAGISRNSGRTYAESVKGRFTISRDNAKNTVYLQMNTLRPDDTAVYYCAAARYFTRDAIYTSGDDYDYWGQGTQVTASS
notes: as for B1
B19: FLL57 (VHH)
VHH: QVQLQESGGGLVQAGGSLRLSCAASGSTFSKNYIDWYRQAPGKQREWVAQITSGGNTHYEPSLKGRFTISRDNAKNTAYLQMNSLKPEDTAVYYCRILDYWGQGTQVTVSS
notes: as for B1
B20: FLL79 (VHH)
VHH: B19 VHH with A23S, K31R
notes: as for B1
B21: FLL86 (VHH)
VHH: B19 VHH with A14P, G16D, S17P, K31R
notes: as for B1
B22: FLL62 (VHH)
VHH: B19 VHH with F29S, K31R
notes: as for B1
B23: FLL158 (VHH)
VHH: B19 VHH with A14P, S30G, K31R
notes: as for B1
B24: FLL84 (VHH)
VHH: QVQLQESGGGLVQAGGSLMVSCAASGGTFSSYATGWFRQVPGKEREFIAGISRSGGRTYYAESVKGRFTISRDNAKNTVYLQMNTLKPDDTAVYYCAAARYFTTSVVYTSGDDYDYWGQGTQVTVSS
notes: as for B1
B25: FLL153 (VHH)
VHH: B24 VHH with A14V, I51V, S54N, G55S, A92G, T104R, S105D, V106A
notes: as for B1
B26: FLL102 (VHH)
VHH: B24 VHH with F29W, E46K, F47L, T104S, D112N
notes: as for B1
B27: FLL71 (VHH)
VHH: B24 VHH with A14V, S54N, G55S, T104R, S105D, V106A
notes: as for B1
B28: FLL92 (VHH)
VHH: B24 VHH with F29W, F47L, P88S, T104S, D112N
notes: as for B1
B29: FLL67 (VHH)
VHH: B24 VHH with A14L, G16D
notes: as for B1
B30: FLL41 (VHH)
VHH: B24 VHH with A14L, G16D, K43R
notes: as for B1
B31: FLL122 (VHH)
VHH: B24 VHH with F29W, F47L, T104S, D112N
notes: as for B1
B32: FLL8 (VHH)
VHH: B24 VHH with A14V, S54N, G55S, T104R, S105D
notes: as for B1

These binders were tested against T1, human FLT3 protein (human, UniProt P36888 27-541, limits assumed) (assay: colorimetric ELISA, periplasmic extract).
T1 construct: protein coated in the screening ELISA; also called ELISA FLT3
Source text: (§1) Llamas were immunized with purified FLT3 protein expressed in Expi293 cells. A phage display library for expression of heavy variable antibody domains was constructed from circulating B cells isolated from the immunized llamas (See van der Linden, de Geus, Stok, Bos, van Wassenaar, Verrips, and Frenken. 2000. J Immunol Methods 240:185-195). Phage clones were screened for binding to FLT3 by expressing llama anti-FLT3 proteins in E. coli, preparing periplasmic extracts, and performing colorimetric ELISAs.

ELISA FLT3 (absorbance)	Binder
4 absorbance	B1
4 absorbance	B2
3.9 absorbance	B3
4 absorbance	B4
4 absorbance	B5
3.7 absorbance	B6
4 absorbance	B7
3.6 absorbance	B8
3.8 absorbance	B9
4 absorbance	B10
4 absorbance	B11
4 absorbance	B12
3.8 absorbance	B13
3.7 absorbance	B14
4 absorbance	B15
4 absorbance	B16

ELISA FLT3 (absorbance)	Binder
3.9 absorbance	B17
1.3 absorbance	B18
1.4 absorbance	B19
0.6 absorbance	B20
1.9 absorbance	B21
0.5 absorbance	B22
2.1 absorbance	B23
1.3 absorbance	B24
1.4 absorbance	B25
3.7 absorbance	B26
1.9 absorbance	B27
4 absorbance	B28
2.7 absorbance	B29
0.8 absorbance	B30
4 absorbance	B31
3.3 absorbance	B32

Each binder was assayed against T1, human FLT3 protein (assay: colorimetric ELISA, signal over control wells lacking FLT3).
Source text: as §1

FLT3/control	Binder
8 ratio	B1
47 ratio	B2
6 ratio	B3
5 ratio	B4
51 ratio	B5
13 ratio	B6
28 ratio	B7
34 ratio	B8
16 ratio	B9
38 ratio	B10
15 ratio	B11
45 ratio	B12
35 ratio	B13
37 ratio	B14
19 ratio	B15
21 ratio	B16

FLT3/control	Binder
17 ratio	B17
15 ratio	B18
9 ratio	B19
4 ratio	B20
15 ratio	B21
5 ratio	B22
17 ratio	B23
4 ratio	B24
15 ratio	B25
37 ratio	B26
9 ratio	B27
25 ratio	B28
12 ratio	B29
5 ratio	B30
26 ratio	B31
14 ratio	B32
